These results are taken from US20210332145A1 (SINGLE CELL TECHNOLOGY, published 2021).

Assay [1] has as its target T1, human BCMA with a His tag (ACROBiosystems, Catalog No.: BCA-H522y) (human).
T1 construct: Bought His-tagged recombinant protein; also called huBCMA-His; Recombinant human BCMA
T1 chain: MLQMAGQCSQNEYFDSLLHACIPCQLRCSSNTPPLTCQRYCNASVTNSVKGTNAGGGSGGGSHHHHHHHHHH
The assay can be described thus: ELISA, plate-coated human BCMA-His. The procedure:
(§1) The recombinantly expressed antibodies were used to assess binding activity to BCMA of different species origins by conventional ELISA according to the known art. Recombinant human BCMA, cyno BCMA, and mouse BCMA were coated onto ELISA plates to detect binding at serially diluted concentrations of the anti-BCMA antibody preparations.
(§2) The ability for antibodies of the present disclosure to bind human BCMA was measured with an ELISA assay. For the BCMA binding assay, a 96-well plate (Nunc) is coated with human BCMA with a His tag (ACROBiosystems, Catalog No.: AC108P1-180611F2-Bulk, SEQ ID NO:2) at 0.2 μg/well overnight at 4° C. Wells are blocked for 2 h with blocking buffer (PBS containing 3% bovine serum albumin). Wells are washed three times with PBS containing 0.1% Tween-20. Anti-human BCMA antibodies of the present disclosure or control IgG (100 μL) is then added and incubated at room temperature for 1 h. After washing, the plate is incubated with 100 μL of goat anti-mouse IgG Fcγ Fragment Specific-HRP conjugate (Jackson ImmunoResearch) at room temperature for 1 h. The plates are washed and then incubated with 100 μL of 3,3′,5,5′-tetra-methylbenzidine. The absorbance at 450 nm is read on a microplate reader. The half maximal effective concentration (EC50) is calculated using GraphPad Prism 6 software.
In experiments performed essentially as described above, anti-human BCMA antibodies of the present disclosure bind human BCMA with a His tag (ACROBiosystems, Beijing, China, Catalog No.: BCA-H522y, SEQ ID NO:2) with an EC50 values shown in Table 3.

Assay [2] concerns the target T2, BCMA on cells (293T cells transfected with BCMA; H929, MM.1S and U266 cell lines expressing BCMA) (human, UniProt Q02223 1-184).
T2 construct: H929, MM.1S and U266 carry the native protein; also called B-cell Maturation Antigen; TNFRSF17
T2 sequence: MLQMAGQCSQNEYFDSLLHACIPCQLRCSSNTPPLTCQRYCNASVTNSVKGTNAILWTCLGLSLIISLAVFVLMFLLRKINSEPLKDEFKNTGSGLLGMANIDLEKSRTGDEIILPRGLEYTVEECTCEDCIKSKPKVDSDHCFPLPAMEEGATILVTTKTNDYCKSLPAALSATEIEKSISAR
Nature of the assay: flow cytometry, 293T cells transfected with BCMA, above parental 293T background.

Assay [3] addresses T2, BCMA on cells (293T cells transfected …). Nature of the assay: flow cytometry, H929 cells.
For assay [4] the target is unchanged. Nature of the assay: flow cytometry, H929 cells. How it is done: A cell line expressing BCMA, H929, was used to assess binding by anti-BCMA antibodies on the native protein on the cell surface by flow cytometry according to the known art. A subset of anti-human BCMA antibodies were assayed for binding to H929 and the fraction of cells bound the labeled antibody above background defined by control is shown in Table 8.
The source holds these as a separate data set.

Assay [5] has as its target T1, human BCMA with a His tag …. Nature of the assay: SPR, Biacore T200. The procedure: The binding affinity of select anti-BCMA was measured on a surface plasmon resonance (SPR) instrument, Biacore T200™, against human BCMA by a method known in the art.
In experiments performed essentially as described above, a subset of anti-human BCMA antibodies of the present disclosure bind human BCMA with a His tag (ACROBiosystems, Beijing, China, Catalog No.: BCA-H522y, SEQ ID NO:2) with affinity shown in Table 6.

For assay [6], the target named is T3, mouse BCMA with a His tag (ACROBiosystems, Catalog No.: BCA-M52H3) (mouse).
T3 construct: Bought His-tagged recombinant protein
T3 chain: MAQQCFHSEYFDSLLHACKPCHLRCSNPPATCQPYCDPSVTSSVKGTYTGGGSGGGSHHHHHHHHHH
The assay can be described thus: ELISA, plate-coated mouse BCMA-His. The procedure:
as §1, §2
In experiments performed essentially as described above, anti-human BCMA antibodies of the present disclosure bind mouse BCMA with a His tag (ACROBiosystems, Beijing, China, Catalog No.: BCA-M52H3, SEQ ID NO:109) with an EC50 values shown in Table 5.

B1: SCT-Aa06(m/m) (antibody, V domains shown)
VH: EVQLQQSGPELVKPGNSVKISCKASGYSFTGYFMNWVMQSHGKSLEWIGRINPYNGDTFYNQKFKGKATLTVDKSSSTAHMELRSLTSEDSAVYYCARLDYTNYNSYPMDYWGQGTSVTVSS
VL: DIQMTHTTSSLSASLGDRVTISCSASQGISNYLNWYLQKPDGTVKLLIYYTSNLHSGVPSRFSGSGSGTDFSLTISNLQPEDIATYYCQQYSKFPWTFGGGTKLEIK
notes: Full IgG format: mouse IgG1 heavy chain constant region, mouse kappa light chain constant region
As for B1, the EC50 in assay [1] is 2.34 ng/mL. Also, the “Positive (%)” value in assay [2] stood at 91.6%. In addition, the Mean fluorescent intensity in assay [3] is 4300. The “Positive (%)” value in assay [4] was 99.9%. In assay [5], this molecule displayed a Kd of 5.16 nM, a koff of 0.0163 s⁻¹ and an on-rate (kon) of 3.15e+06 M⁻¹ s⁻¹.

B2: SCT-Aa08(h/h) (antibody, V domains shown)
VH: QVQLQQSDAELVKPGASVKISCKVSGYTFIDHTIHWMKQRPEQGLEWIGYIYPRIDSSKCNEKFKDKATLTADKSSNTAYIQLNSLTSEDSAVYFCARWDYEGFDYWGQGTTLTVSS
VL: DIVMTQSPATLSVTPGDRVSLSCRASQSISDYLHWYQQKSHESPRLLIKYASQSISGIPSRFSGSGSGSDFTLSINSVEPEDVGVYYCQNGHSFPPTFGSGTKLEIK
notes: Full IgG format, chimeric: human IgG1 heavy chain constant region, human kappa light chain constant region
Turning to B2, the EC50 in assay [1] amounted to 3.74 ng/mL. Also, the “Positive (%)” value in assay [2] worked out at 57.5%. Also, in assay [3], the Mean fluorescent intensity amounted to 454. For the same molecule, the EC50 in assay [6] amounted to 377 ng/mL. In addition, the “Positive (%)” value in assay [4] was found to be 92.5%. In assay [5], this molecule displayed a Kd of 17.6 nM, a koff of 0.0592 s⁻¹ and a kon of 3.36e+06 M⁻¹ s⁻¹.

B3: SCT-Aa19(h/h) (antibody, V domains shown)
VH: QVQLQQSGPELVKPGASVRISCKASGCTFTDYYIHWVKQRPGQGLEWIGWIYPGNLNSKFNEKFRDKATLTADNSSSTAYMQLSSLTSEDSAVYFCARYNYEGYFDYWGQGTTLTVSS
VL: DIVMTQSPATLSVTPGDRVSLSCRASQSIADSLHWYQQKSHESPRLLIKYASHSISGIPSRFRGSGSGSDFTLSINSVEPEDVGVYYCQNGHSFPLTFGAGTKLELK
notes: as for B2
Regarding B3, the EC50 in assay [1] came out at 3.38 ng/mL. For the same molecule, in assay [2], the “Positive (%)” value stood at 51%. This molecule also showed a Mean fluorescent intensity in assay [3] of 351. For the same molecule, in assay [4], the “Positive (%)” value was 85.1%. Moreover, in assay [5], the dissociation constant (Kd) amounted to 1.19 nM, the koff was 0.0062 s⁻¹ and the kon was determined as 5.21e+06 M⁻¹ s⁻¹.

B4: SCT-Aa10(m/m) (antibody, V domains shown)
VH: QVQLQQSDAELVKPGASVKISCKVSGYTFTDHTIHWMKQRPEQGLEWIGYIFPRDGNTKYNEKFKGKATMTADKSSSTAYMQLNSLTSEDSAVYFCARWDYEGFDCWGQGTTLTVSS
VL: DIVMTQSPATLSVTPGDRVSLSCRASQSISDYLHWYQQKSHESPRLLIKYASQSISGIPSRFSGSGSGSDFTLSINSVEPEDVGVYFCQNGHSFPPTFGSGTKLEIK
notes: as for B1
B4 displayed an EC50 in assay [1] of 2.57 ng/mL. Also, the “Positive (%)” value in assay [2] amounted to 82.9%. This molecule also displayed a Mean fluorescent intensity in assay [3] of 2960. In addition, in assay [6], the EC50 was 8030 ng/mL. Besides, the “Positive (%)” value in assay [4] amounted to 99.9%. In assay [5], this molecule showed a Kd of 9.56 nM, a koff of 0.0224 s⁻¹ and a kon of 2.34e+06 M⁻¹ s⁻¹.

B5: SCT-Aa10(h/h) (antibody, V domains shown)
VH: QVQLQQSDAELVKPGASVKISCKVSGYTFTDHTIHWMKQRPEQGLEWIGYIFPRDGNTKYNEKFKGKATMTADKSSSTAYMQLNSLTSEDSAVYFCARWDYEGFDCWGQGTTLTVSS
VL: DIVMTQSPATLSVTPGDRVSLSCRASQSISDYLHWYQQKSHESPRLLIKYASQSISGIPSRFSGSGSGSDFTLSINSVEPEDVGVYFCQNGHSFPPTFGSGTKLEIK
notes: as for B2
In assay [1], B5 displayed an EC50 of 2.86 ng/mL. Further, in assay [2], the “Positive (%)” value came to 57.9%. The same molecule came in with a Mean fluorescent intensity in assay [3] of 495. In addition, the midpoint of the response in assay [6], the EC50, lay at 941 ng/mL. Moreover, the “Positive (%)” value in assay [4] is 85.5%. In assay [5], the Kd was determined as 9.17 nM, the koff amounted to 0.0284 s⁻¹ and the kon came to 3.1e+06 M⁻¹ s⁻¹.

B6: SCT-Aa08(m/m) (antibody, V domains shown)
VH: QVQLQQSDAELVKPGASVKISCKVSGYTFIDHTIHWMKQRPEQGLEWIGYIYPRIDSSKCNEKFKDKATLTADKSSNTAYIQLNSLTSEDSAVYFCARWDYEGFDYWGQGTTLTVSS
VL: DIVMTQSPATLSVTPGDRVSLSCRASQSISDYLHWYQQKSHESPRLLIKYASQSISGIPSRFSGSGSGSDFTLSINSVEPEDVGVYYCQNGHSFPPTFGSGTKLEIK
notes: as for B1
B6: the EC50 in assay [1] turned out to be 2.46 ng/mL; in assay [6] it was 682 ng/mL. For the same molecule, the “Positive (%)” value came out at 70.6% in assay [2] and 99.9% in assay [4]. Moreover, the Mean fluorescent intensity in assay [3] worked out at 1820. The Kd in assay [5] worked out at 15.7 nM. The molecule further gave a koff in assay [5] of 0.0527 s⁻¹. The same molecule registered a kon in assay [5] of 3.36e+06 M⁻¹ s⁻¹.

B7: SCT-Aa11(m/m) (antibody, V domains shown)
VH: QVQLQQSDAELVKPGASVKISCKVSGYTFTDHTIHWMKQRPEQGLEWIGYIFPRDGTTKFNEMFKGKATLTADKSSSTAYMELNSLTSEDSAVYFCARWDYEGFDYWGQGTTLTVSS
VL: DIVMTQSPATLSVTPGDRVSLSCRASQSISDYLHWYQQKSHESPRLLIKYASQFISGIPSRFRGSGSGSDFTLSINSVEPEDVGVYYCQNGHSFPPTFGSGTKLEIK
notes: as for B1
On to B7, for which the EC50 in assay [1] amounted to 2.38 ng/mL. Also, the “Positive (%)” value in assay [2] was 34.6%. The same molecule yielded a Mean fluorescent intensity in assay [3] of 1520. Also, in assay [4], the “Positive (%)” value was 99.9%. In assay [5], this molecule returned a Kd of 42 nM, an off-rate constant (koff) of 0.0945 s⁻¹ and an on-rate constant (kon) of 2.25e+06 M⁻¹ s⁻¹.

B8: SCT-Aa11(h/h) (antibody, V domains shown)
VH: QVQLQQSDAELVKPGASVKISCKVSGYTFTDHTIHWMKQRPEQGLEWIGYIFPRDGTTKFNEMFKGKATLTADKSSSTAYMELNSLTSEDSAVYFCARWDYEGFDYWGQGTTLTVSS
VL: DIVMTQSPATLSVTPGDRVSLSCRASQSISDYLHWYQQKSHESPRLLIKYASQFISGIPSRFRGSGSGSDFTLSINSVEPEDVGVYYCQNGHSFPPTFGSGTKLEIK
notes: as for B2
B8 registered an EC50 in assay [1] of 3.85 ng/mL. Further, the “Positive (%)” value in assay [2] stood at 34.9%. Further, in assay [3], the Mean fluorescent intensity stood at 179. The “Positive (%)” value in assay [4] worked out at 53.7%. Also, in assay [5], the Kd was 47.1 nM, the koff came to 0.113 s⁻¹ and the kon is 2.4e+06 M⁻¹ s⁻¹.

B9: SCT-Aa01(h/h) (antibody, V domains shown)
VH: DVQLQESGPGLVKPSQSLSLTCSVTGYSITSGYYWNWIRQFPGNKLEWMGYIRYDGSNNYNPSLKNRISITRDTSKNQFFLKLNSVTTEDTATYYCAPYDYDYAMDFWGQGTSVTVSS
VL: DIQMTQSPASLSASVGETVTITCRASGNIHNYLAWYQQKQGKSPQLLVYNAKTLAHGVPSRFSGSGSGTQYSLKITSLQPEDFGTYYCQHFWSTPFTFGSGTKLEIK
notes: as for B2
The molecule B9 had an EC50 in assay [1] of 3.38 ng/mL. Also, the “Positive (%)” value in assay [2] amounted to 12.3%. Moreover, the Mean fluorescent intensity in assay [3] came out at 411. For the same molecule, the “Positive (%)” value in assay [4] is 55.2%. Moreover, in assay [5], binding was put at a Kd of 43.4 nM, the koff came to 0.0355 s⁻¹ and the on-rate constant (kon) came out at 819000 M⁻¹ s⁻¹.
